Target: Purified full-length LRRK2 (UniProt Q5S007)
Assay: mass photometry; LRRK2 at 150 nM or 200 nM incubated with constrained peptide 1:7.5 for 30 min at 30 °C; 10 uL added to 10 uL buffer (50 mM HEPES, 150 mM NaCl, 5 mM MgCl2, 1 mM DTT, 0.1 mM GDP, 1% glycerol); Refeyn TwoMP; percentage of dimer from molecular weight
Conditions: remark: other sources report otherwise

Substance: Purified full-length LRRK2, Q5S007 1-2527
- stoichiometry N: 2
